Here are results for 18 molecules from patent US20140093496A1 (Chugai, published 2014).

Test [1] concerns the target T1, FcγRIIb extracellular domain with C-terminal His tag (human, UniProt P31994 43-217).
T1 construct: extracellular domain; also called FcgRIIb
T1 sequence (looked up): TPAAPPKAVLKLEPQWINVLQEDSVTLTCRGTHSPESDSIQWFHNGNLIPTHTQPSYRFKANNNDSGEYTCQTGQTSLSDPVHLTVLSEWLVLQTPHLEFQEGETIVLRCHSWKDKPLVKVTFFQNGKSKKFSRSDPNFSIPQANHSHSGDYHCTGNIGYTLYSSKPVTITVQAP
Kind of test: SPR (Biacore). From the text:
(§1) IL6R-L was utilized as the common antibody L chain for all of the antibodies, the antibodies were expressed and purified according to the method of Reference Example 1, and binding to each of the FcγRs (FcγRIa, FcγRIIa H type, FcγRIIa R type, FcγRIIb, and FcγRIIIa V type) was comprehensively evaluated by the method of Reference Example 2.
(§2) Furthermore, KD(IIaR)/KD(IIb) and KD(IIaH)/KD(IIb) in the table respectively represent the value obtained by dividing the KD value of each variant for FcγRIIaR by the KD value of each variant for FcγRIIb, and the value obtained by dividing the KD value of each variant for FcγRIIaH by the KD value of each variant for FcγRIIb. KD(IIb) of the parent polypeptide/KD(IIb) of the altered polypeptide refers to the value obtained by dividing the KD value of the parent polypeptide for FcγRIIb by the KD value of each variant for FcγRIIb.

Test [2] has as its target T2, FcγRIa extracellular domain with C-terminal His tag (human, UniProt P12314 16-292).
T2 construct: also called FcgRIa
Kind of test: SPR (Biacore).
Text: as §1, §2
Background: SPR reads the build-up and loss of mass on a sensor chip optically.

Test [3] has as its target T3, FcγRIIIa type V extracellular domain, C-terminal His tag (human, UniProt P08637 17-208).
T3 construct: extracellular domain; also called FcgRIIIaV; FcγRIIIaV; not shown: His tag at the C terminus
Kind of test: SPR (Biacore), antibody captured on chip, FcγR extracellular domain as analyte; 1:1 kinetic fit or Equation 2 for weak binding.
Text: as §1, §2

In test [4] the target is T4, FcγRIIa type H extracellular domain with C-terminal His tag (human, UniProt P12318 34-217).
T4 construct: extracellular domain; also called FcgRIIaH; FcγRIIaH
T4 sequence (looked up): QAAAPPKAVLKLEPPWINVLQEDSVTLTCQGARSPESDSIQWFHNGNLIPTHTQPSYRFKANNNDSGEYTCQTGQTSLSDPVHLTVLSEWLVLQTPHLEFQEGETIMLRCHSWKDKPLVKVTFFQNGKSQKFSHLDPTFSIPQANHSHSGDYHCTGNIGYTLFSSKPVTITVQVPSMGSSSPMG
Kind of test: SPR (Biacore).
Text: as §1, §2

For test [5], the target named is T5, FcγRIIa type R extracellular domain with C-terminal His tag (human, UniProt P12318 34-217).
T5 construct: extracellular domain; also called FcgRIIaR; FcγRIIaR
T5 sequence (looked up): T4 sequence (looked up) with H134R
As to the kind of experiment: SPR (Biacore).
Text: as §1, §2

Test [6] concerns the target T6, FcγRIIa type R extracellular domain, C-terminal His tag (human, UniProt P12318 34-217).
T6 construct: extracellular domain; also called FcgRIIaR; FcγRIIaR; not shown: His tag at the C terminus
T6 sequence (looked up): T4 sequence (looked up) with H134R
Kind of test: SPR (Biacore), antibody captured, FcγR as analyte.
Text: as §2
Kinetic analyses for calculating the KD values of each altered antibody for FcγR were performed according to the following method. First, antibodies of interest were captured onto the above-mentioned sensor chips, and an Fcγ receptor diluted with the running buffer was allowed to interact. The Biacore Evaluation Software was used to globally fit the measured results to the obtained sensorgram using the 1:1 Langmuir binding model, and the association rate constant ka (L/mol/s) and the dissociation rate constant kd (1/s) were calculated; and from those values the dissociation constants KD (mol/L) were calculated.

Changes are numbered by the printed parent chain. Names may count otherwise.

T2 sequence (P12314 16-292): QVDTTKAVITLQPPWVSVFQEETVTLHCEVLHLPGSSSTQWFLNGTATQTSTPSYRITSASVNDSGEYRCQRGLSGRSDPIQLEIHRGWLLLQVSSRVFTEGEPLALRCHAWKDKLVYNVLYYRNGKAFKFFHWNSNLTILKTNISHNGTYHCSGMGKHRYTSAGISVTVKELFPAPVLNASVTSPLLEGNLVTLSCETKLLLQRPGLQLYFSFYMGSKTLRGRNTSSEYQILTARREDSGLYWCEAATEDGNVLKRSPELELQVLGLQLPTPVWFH
T3 sequence (P08637 17-208 F176V): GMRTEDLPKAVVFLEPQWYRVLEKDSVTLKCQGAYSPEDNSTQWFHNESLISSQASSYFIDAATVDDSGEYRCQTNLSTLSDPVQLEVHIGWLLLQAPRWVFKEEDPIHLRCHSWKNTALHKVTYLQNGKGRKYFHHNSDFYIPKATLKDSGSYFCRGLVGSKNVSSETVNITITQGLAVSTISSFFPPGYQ

B1: IL6R-2B261/IL6R-L (antibody, human IgG1, kappa)
heavy: QVQLQESGPGLVKPSETLSLTCAVSGHSISHDHAWSWVRQPPGEGLEWIGFISYSGITNYNPSLQGRVTISRDNSKNTLYLQMNSLRAEDTAVYYCARSLARTTAMDYWGEGTLVTVSSASTKGPSVFPLAPSSKSTSGGTAALGCLVKDYFPEPVTVSWNSGALTSGVHTFPAVLQSSGLYSLSSVVTVPSSSLGTQTYICNVNHKPSNTKVDKKVEPKSCDKTHTCPPCPAPDLLGGDSVFLFPPKPKDTLMISRTPEVTCVVVDVSHEDPEVKFNWYVDGVEVHNAKTKPREEQDNSTYRVVSVLTVLHQDWLNGKEYKCKVSNKALPAPIEKTISKAKGQPREPQVYTLPPSRDELTKNQVSLTCLVKGFYPSDIAVEWESNGQPENNYKTTPPVLDSDGSFFLYSKLTVDKSRWQQGNVFSCSVMHEALHNHYTQESLSLSP
light: not shown
notes: E233D/P238D/Y296D (EU) in IL6R-B3; copies: 2 + 2
In general, Kd refers to the free concentration of one partner at which half of the binding sites on the other are occupied at equilibrium, for simple one-to-one binding. Lower therefore signals a tighter complex. Turning to B1, the Kd in test [1] was determined as 1 µM; in test [2] it was 0.009 µM.

B2: IL6R-BP213/IL6R-L (antibody, human IgG1, kappa)
heavy: B1 heavy with H270D, P273G, D298Y, A332R
light: not shown
notes: Anti-human IL-6 receptor IgG1
Regarding B2, binding in test [3] was characterised by a dissociation constant (Kd) of 63 µM.

B3: IL6R-BP132/IL6R-L (antibody, human IgG1, kappa)
heavy: B1 heavy with D298Y, K328A, A332K
light: not shown
notes: E233D/P238D/K326A/A330K (EU) in IL6R-B3; copies: 2 + 2
Regarding B3, the figures for the dissociation constant Kd in test [4] and in test [5] were 30 µM and 8 µM, respectively.

B4: IL6R-BP211/IL6R-L (antibody, human IgG1, kappa)
heavy: B1 heavy with H270D, P273G, D298Y, K328A, A332R
light: not shown
notes: Anti-human IL-6 receptor IgG1
Take B4: in test [3], the Kd was determined as 73 µM.

B5: IL6R-BP207/IL6R-L (antibody, human IgG1, kappa)
heavy: B1 heavy with D298Y, A332R
light: not shown
notes: Anti-human IL-6 receptor IgG1
In the case of B5, binding in test [3] was characterised by a dissociation constant (Kd) of 65 µM.

B6: IL6R-BP191/IL6R-L (antibody, human IgG1, kappa)
heavy: B1 heavy with H270D, P273G, D298Y, K328A, A332K
light: not shown
notes: E233D/P238D/H268D/P271G/K326A/A330K (EU) in IL6R-B3; copies: 2 + 2
As to B6, the Kd in test [5] came to 3 µM; in test [2], 0.004 µM.

B7: IL6R-BP129/IL6R-L (antibody, human IgG1, kappa)
heavy: B1 heavy with A332K
light: not shown
notes: E233D/P238D/Y296D/A330K (EU) in IL6R-B3; copies: 2 + 2
For B7, the dissociation constant Kd in test [4] stood at 40 µM.

B8: IL6R-BP203/IL6R-L (antibody, human IgG1, kappa)
heavy: B1 heavy with D235E, G239D, P273G, D298Y, A332R
light: not shown
notes: G237D/P238D/P271G/A330R (EU) in IL6R-B3; copies: 2 + 2
B8: the values for the dissociation constant (Kd) in test [5] and in test [2] were 0.99 µM and 0.18 µM, respectively.

B9: IL6R-BP911/IL6R-L (antibody, human IgG1, kappa)
heavy: B1 heavy with D235E, D298Y, A332K
light: not shown
notes: IgG1; P238D/A330K (EU numbering) introduced into IL6R-B3
B9 gave a Kd in test [6] of 16 µM.

B10: IL6R-BP118/IL6R-L (antibody, human IgG1, kappa)
heavy: B1 heavy with D235E, D298Y, K328S
light: not shown
notes: IgG1; P238D/K326S (EU numbering) introduced into IL6R-B3
On to B10, for which, in test [6], the Kd worked out at 15 µM.

B11: IL6R-BP201/IL6R-L (antibody, human IgG1, kappa)
heavy: B1 heavy with G239D, P273G, D298Y, A332R
light: not shown
notes: E233D/G237D/P238D/P271G/A330R (EU) in IL6R-B3; copies: 2 + 2
For the molecule B11, the figures for the Kd in test [5] and in test [1] were 0.84 µM and 0.04 µM, respectively.

B12: IL6R-BP103/IL6R-L (antibody, human IgG1, kappa)
heavy: B1 heavy with D235E, S269V, D298Y
light: not shown
notes: IgG1; P238D/S267V (EU numbering) introduced into IL6R-B3
On to B12, for which binding in test [6] was characterised by a dissociation constant (Kd) of 11 µM.

B13: IL6R-BP151/IL6R-L (antibody, human IgG1, kappa)
heavy: B1 heavy with L236Y, G239D, D298Y, K328A, A332R
light: not shown
notes: E233D/L234Y/G237D/P238D/K326A/A330R (EU) in IL6R-B3; copies: 2 + 2
Turning to B13, the dissociation constant Kd in test [1] was found to be 0.04 µM.

B14: IL6R-BP199/IL6R-L (antibody, human IgG1, kappa)
heavy: B1 heavy with D298Y, K328D, A332R
light: not shown
notes: Anti-human IL-6 receptor IgG1
B14: the Kd in test [3] was determined as 61 µM.

B15: IL6R-BP206/IL6R-L (antibody, human IgG1, kappa)
heavy: B1 heavy with P273G, D298Y, A332R
light: not shown
notes: E233D/P238D/P271G/A330R (EU) in IL6R-B3; copies: 2 + 2
B15 yielded a Kd in test [1] of 0.2 µM.

B16: IL6R-BP209/IL6R-L (antibody, human IgG1, kappa)
heavy: B1 heavy with D235E, G239D, H270D, P273G, D298Y, K328A, A332R
light: not shown
notes: Anti-human IL-6 receptor IgG1
B16 returned a dissociation constant Kd in test [3] of 41 µM.

B17: IL6R-BP089/IL6R-L (antibody, human IgG1, kappa)
heavy: B1 heavy with D235E, L236Y, D298Y, K328A, A332K
light: not shown
notes: L234Y/P238D/K326A/A330K (EU) in IL6R-B3; copies: 2 + 2
On to B17, for which the affinity in test [4], expressed as Kd, was 20 µM.

B18: IL6R-BP198/IL6R-L (antibody, human IgG1, kappa)
heavy: B1 heavy with L236Y, H270D, P273G, D298Y, K328A, A332K
light: not shown
notes: Anti-human IL-6 receptor IgG1
As for B18, the Kd in test [3] was 44 µM.
